Laboratory results: PMC7069974, “Single molecule analysis reveals monomeric XPA bends DNA and undergoes episodic linear diffusion during damage search”

Columns and labels:
Test in all cases: EMSA; EMSA: 8 nM DNA, 20 mM HEPES pH 7.5, 150 mM NaCl, 5 mM DTT, 0.5 mg/ml BSA, 5% glycerol, 25 min at room temperature; gel 5% native, 0.5x TBE, 4 C. AFM: 100 nM DNA, 1-4 uM XPA (ND538)
Details in all cases: protein: recombinant, tags: N-terminal His, label: 5'-6FAM on bottom strand, blunt
[1] = target: T1, His-flXPA-StrepII (human, UniProt P23025 1-273)
[2] = target: His-truncXPA-StrepII (human, UniProt P23025 98-239)
[3] = target: T1, His-flXPA-StrepII; remark: listed apart in the source

Sequence of His-truncXPA-StrepII (P23025 98-239): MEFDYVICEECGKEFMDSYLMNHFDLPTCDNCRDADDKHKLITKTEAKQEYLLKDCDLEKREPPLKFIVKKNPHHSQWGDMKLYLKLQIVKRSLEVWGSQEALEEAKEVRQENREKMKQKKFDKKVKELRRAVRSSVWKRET
T1 sequence (P23025 whole entry): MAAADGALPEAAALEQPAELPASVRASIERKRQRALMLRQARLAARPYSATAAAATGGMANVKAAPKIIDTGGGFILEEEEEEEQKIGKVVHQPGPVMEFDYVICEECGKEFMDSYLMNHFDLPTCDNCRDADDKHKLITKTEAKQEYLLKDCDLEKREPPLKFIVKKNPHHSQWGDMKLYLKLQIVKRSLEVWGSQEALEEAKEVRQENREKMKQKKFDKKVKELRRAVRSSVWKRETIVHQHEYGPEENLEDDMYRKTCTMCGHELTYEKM

B1: ND37 (dsDNA)
DNA 1: CCGAGTCATTCCTGCAGCGAGTCCATGGGAGTCAAAT
DNA 2: ATTTGACTCCCATGGACTCGCTGCAGGAATGACTCGG
modifications: 5'-phosphate top strand
Work on B1 yielded a Kd [1] of 253 ± 14 nM and a Kd [2] of 269 ± 22 nM.

B2: AAF37 (dsDNA)
DNA 1: CCGAGTCATTCCTGCAGCGAGTCCATGGGAGTCAAAT
DNA 2: ATTTGACTCCCATGGACTCGCTGCAGGAATGACTCGG
modifications: dG-C8-AAF at G14 of top strand; 5'-phosphate top strand
Binder B2 has a Kd [1] of 109 ± 5 nM and a Kd [2] of 189 ± 9 nM.

B3: CPD37 (dsDNA)
DNA 1: CCGAGTCATTCCTGCAGCGATTCCATGGGAGTCAAAT
DNA 2: ATTTGACTCCCATGGAATCGCTGCAGGAATGACTCGG
modifications: CPD T<>T at T21-T22 of top strand; 5'-phosphate top strand
For B3, the binding signal [3] was ~44 fold specificity for CPD over non-damaged DNA (Kd ratio x 37 sites) and the Kd [2] was 269 ± 24 nM.
